These results are taken from publication PMC10106849.

In the series the target is T1, RsCDF3 (Raphanus sativus, UniProt A0A6J0K2F2 1-435).
T1 sequence: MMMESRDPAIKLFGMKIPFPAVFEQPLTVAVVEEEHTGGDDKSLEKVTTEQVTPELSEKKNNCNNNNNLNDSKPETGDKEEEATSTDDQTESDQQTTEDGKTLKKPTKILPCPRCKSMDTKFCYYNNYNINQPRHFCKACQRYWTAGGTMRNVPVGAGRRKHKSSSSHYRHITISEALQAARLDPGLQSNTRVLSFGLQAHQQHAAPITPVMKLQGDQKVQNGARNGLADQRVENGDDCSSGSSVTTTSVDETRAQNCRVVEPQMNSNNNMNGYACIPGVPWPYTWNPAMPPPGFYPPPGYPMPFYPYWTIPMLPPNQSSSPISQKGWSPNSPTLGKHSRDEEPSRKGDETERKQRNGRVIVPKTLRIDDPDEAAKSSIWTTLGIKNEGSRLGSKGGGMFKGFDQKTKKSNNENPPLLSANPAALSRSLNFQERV
The series is described as follows: competition.

B1: mP1 mutated probe (dsDNA)
DNA 1: AATACACATTTATAATGTCTAGTTAAACTTAC
DNA 2: GTAAGTTTAACTAGACATTATAAATGTGTATT
Take B1: the binding result is on record as “no binding”.
